{"source": "patent US6821728B1", "about": "“Screening system” (priority 1998, dated 2004)", "key": {"mutated p53 (p53 R273H)": {"target": "mutated p53 (p53 R273H) (Homo sapiens, UniProt P04637, R273H)", "settings": "synthetic peptide fused to the Drosophila Antennapedia internalisation domain (17 amino acids); cited from earlier work"}, "mutated p53 R273H": {"target": "T1, mutated p53 R273H (Homo sapiens, UniProt P04637, R273H)", "T1 construct": "expressed in transfected cells; host or cells: Saccharomyces cerevisiae strain YDE4xp53 (derivative of JPY9)", "assay": "transactivation experiments in yeast strain YDE4xp53 (LacZ expression, beta-galactosidase)", "format": "cell-based", "settings": "peptide expressed from the pESBA-ADH or pESBA-ACT vector in yeast", "from_the_text": "The agonistic action of the inventive screening system has been shown for the tumor suppressor gene p53. The tumor suppressor gene p53 is mutated in more than 50% of all human cancers which results in the inability to properly bind to the p53 binding site sin target genes responsible to induce cell cycle arrest or apoptosis. The four most commonly found mutations occur in the DNA binding domain of p53 and lead to a single amino acid substitution. […] This opens the possibility to use the peptide libraries according to the present invention to screen for peptides which restore the mutated p53 to wild type activity or to use this system to screen for agonistic actions of peptides in general. […]\nYeast strain YDE4xp53 was transformed with the conventional lithium acetate method (Methods in Yeast Genetics, a Cold Spring Harbor Laboratory Course Manual, Cold Spring Harbor Laboratory Press, 1994) with wild type and mutated p53 expression vectors. Transactivation potential of the different p53 molecules was determined by measurement of the LacZ expression on X-gal plates and liquid beta-galactosidase assays as described (Escher and Schaffner, Gene Activation at a Distance and Telomeric Silencing . . . , Mol. Gen. Genet. (1997) 256; 456-461). […]"}, "[1]": {"target": "T2, interaction between GAL4 and GAL11P (Saccharomyces cerevisiae, UniProt P19659, N342I)", "T2 construct": "expressed in transfected cells; host or cells: Saccharomyces cerevisiae, JPY9 derivative (gal4Δ11) with integrated pESBA-17mer-URA3", "T2 sequence (P19659 whole entry N342I, the tested form may be a part)": "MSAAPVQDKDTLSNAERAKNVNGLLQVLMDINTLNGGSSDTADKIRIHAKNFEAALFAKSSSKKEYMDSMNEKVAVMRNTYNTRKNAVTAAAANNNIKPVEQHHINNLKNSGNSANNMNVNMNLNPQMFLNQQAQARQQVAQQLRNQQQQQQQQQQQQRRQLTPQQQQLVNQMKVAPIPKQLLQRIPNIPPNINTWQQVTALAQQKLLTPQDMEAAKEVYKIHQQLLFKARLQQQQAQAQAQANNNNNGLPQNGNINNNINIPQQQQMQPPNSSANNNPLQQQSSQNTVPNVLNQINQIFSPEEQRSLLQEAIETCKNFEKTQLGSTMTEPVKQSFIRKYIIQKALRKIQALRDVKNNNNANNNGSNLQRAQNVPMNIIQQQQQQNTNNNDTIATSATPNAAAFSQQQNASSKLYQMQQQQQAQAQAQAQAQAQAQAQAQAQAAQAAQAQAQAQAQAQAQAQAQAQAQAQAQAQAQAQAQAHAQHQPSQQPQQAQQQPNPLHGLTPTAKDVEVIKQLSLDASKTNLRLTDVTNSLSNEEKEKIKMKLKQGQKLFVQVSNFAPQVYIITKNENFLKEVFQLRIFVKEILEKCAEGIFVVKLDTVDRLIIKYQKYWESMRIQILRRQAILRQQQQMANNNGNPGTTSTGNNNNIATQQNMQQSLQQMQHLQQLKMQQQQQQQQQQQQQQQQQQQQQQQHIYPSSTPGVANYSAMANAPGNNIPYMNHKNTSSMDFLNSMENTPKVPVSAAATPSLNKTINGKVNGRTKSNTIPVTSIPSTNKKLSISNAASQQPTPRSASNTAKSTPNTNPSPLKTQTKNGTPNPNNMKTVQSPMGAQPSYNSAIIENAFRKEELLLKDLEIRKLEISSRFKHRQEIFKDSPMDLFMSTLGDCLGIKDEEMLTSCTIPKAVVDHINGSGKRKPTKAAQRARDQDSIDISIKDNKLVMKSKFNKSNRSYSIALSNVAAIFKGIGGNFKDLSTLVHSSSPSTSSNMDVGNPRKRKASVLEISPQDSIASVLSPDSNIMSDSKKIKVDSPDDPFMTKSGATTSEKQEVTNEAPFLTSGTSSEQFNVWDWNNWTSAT", "assay": "inhibition of GAL4(1-100)-GAL11P interaction and reporter gene (LacZ/URA3) activation in yeast", "format": "cell-based", "settings": "expressed from a high-copy plasmid (2 μm) in yeast, vector pESBA-ADH1", "from_the_text": "To test the antagonistic action of short protein fragments or peptides in yeast, it was checked whether high production of a peptide could inhibit a defined molecular interaction.\nThe yeast strain used in these experiments is a derivative of JPY9 (MATα, ura3-52, his3Δ200, leu2Δ1, trp1Δ63, lys2Δ385, gal4Δ11) (A. Barberis et al., Cell, Vol. 81, 359-368) in which the reporter construct pESBA-17mer-URA3 was integrated at the his3 locus. Integration through homologous recombination was piloted by linearisation of the reporter plasmid at the XhoI site prior to yeast transformation. Expression of the URA3 gene was exploited to select for stable integrants on ura-media. […] Upon selection for integration of the reporter construct, this plasmid was readily cured from yeast cells by negative selection for URA3 expression on media containing 5-FOA (ref. Guide to Yeast Genetics and Molecular Biology)\nActivation of the divergent LacZ and URA3 reporter genes in the yeast strain described above was induced by co-expression of the DNA-binding domain of GAL4 (amino acid residues 1-100) and GAL11P. GAL4(1-100) was expressed from the plasmid pRJR217 (Y. Wu et al., Quantification of Putative Activator- Target Affinities . . . , EMBO J. 15, 3951-3963, 1996), while GALllP was expressed from pSO28 (A. Barberis et. al., Cell Vol. 81, 359-368). […]"}}}
{"substance": "22mer peptide 46: 22 amino acid long peptide stemming from the carboxy-terminal part of p53 (361-382) (GSRAHSSHLKSKKGQSTSRHKK; UniProt P04637 361-382, looked up, fragment)", "values": [{"measurement": "restoration of DNA binding activity of the mutated p53", "setting": "mutated p53 (p53 R273H)", "value": "can restore DNA binding activity of the mutated p53"}, {"measurement": "reactivation of mutated p53 R273H in transactivation experiments", "setting": "mutated p53 R273H", "value": "sufficient to partially reactivate mutated p53 R273H"}]}
{"substance": "short protein fragment: peptide comprising the GAL4 residues 58-97, known to contain the GAL11P-interacting sequence, overexpressed from vector pESBA-ADH1", "values": [{"measurement": "inhibition of GAL4-GAL11P protein-protein interaction and its effect on gene expression", "setting": "[1]", "value": "could be specifically inhibited"}]}
